This is an account of results in patent US20070066516A1, “Compounds comprising cyclized somatostatin receptor binding peptides” (priority 2005, published 2007).

Experiment [1] deals with SSTR2 (Homo sapiens, UniProt P30874). The experiment is described as follows: Radioligand binding assay on membranes of CHO-K1 cells expressing SSTR2. The conditions noted are these: membranes from CHO-K1 cells stably expressing cloned somatostatin receptor 2. The procedure: (§1) Radiolabeling binding assays were carried out as described in the prior art like, e.g. in Gazal S. et al (2002) J. Med. Chem. 45: 1665-1671. The radioligand binding assays were carried out on membranes prepared from CHO-K1 cells stably expressing individually cloned somatostatin receptors 2 or 5 (SSTR2 or SSTR5). Cells were grown for 2 days for almost confluence and were washed and scraped into 50 mM ice-cold Tris-HCl, pH 7.8, containing 1 mM EGTA, 5 mM MgCl2, […], 0.1 mM PMSF, and 0.5 mg/mL aprotinin (buffer A) and were centrifuged at 10,000 rpm for 10 min at 4° C. (in Sorvall RC 26 Plus ultracentrifuge, rotor SS-34). The pellet was resuspended in buffer A and homogenized with a Polytron PT 1200 homogenizer (Kinematica AG, Switzerland) (setting 2, 3 strokes 10 s each). The homogenate was then centrifuged at 20 000 rpm for 20 min at 4° C. The pellet was resuspended in buffer A and homogenized using the Polytron homogenizer (setting 2, 3 strokes 5 s each). The protein content was determined by Bradford, and the membrane preparation was diluted in buffer A containing 1 mg/mL bovine serum albumin (BSA) to a final 0.2 or 0.4 mg/mL membrane protein (depending on the specific somatostatin receptor used).
(§2) The radioligand binding assay was performed in 96 well microtiter plates (Maxisorp plates, Nunc, Denmark). Cell membranes ([…] protein) were incubated with the various cyclized peptides indicated in Table 1 & 2, which comprised a lanthanide chelation unit, in a final volume of 250 μL, for 45 min. at room temperature in the presence or absence of competing peptides. Nonspecific binding was defined as the radioactivity remaining bound in the presence of […] somatostatin. At the end of the binding, reaction free radioligand was separated from bound Ligand by rapid filtration through UniFilter GF/C plates preincubated in a solution of 5 g/L polyethyleneimine and 1 g/L BSA. The filtration was performed in Filter-Mate Cell Harvester (Packard Instrument Company, U.S.A.). After filtration, the filters were washed several times with cold buffer A containing 1 mg/mL BSA and allowed to dry overnight at room temperature. Then, bound radioactivity was counted. The binding assays were performed in triplicate wells. Data from radioligand binding were used to generate inhibition curves, and IC50 values were determined for each of the tested peptides. The saturation binding data were analyzed by the method of Scatchard, and IC50 values are expressed as mean±SEM (standard error of the mean).

Experiment [2] addresses SSTR5 (Homo sapiens, UniProt P35346). Nature of the experiment: Radioligand binding assay on membranes of CHO-K1 cells expressing SSTR5. Particulars: for IC50: membranes from CHO-K1 cells stably expressing cloned somatostatin receptor 5; for Ratio 2/5 in %: ratio of IC50 SSTR2 / IC50 SSTR5 in %. As for the experimental part: as §1, §2
Experiment [3] has as its target T1, somatostatin receptor 5 (UniProt P35346 1-364, limits assumed).
T1 construct: whole, on cells; Assayed as membrane preparation of CHO-K1 cells stably expressing the cloned receptor; also called SSTR5; somatostatin receptor subtype 5
Nature of the experiment: ratio of IC50 on SSTR2 to IC50 on SSTR5 (reference SSTR2), radioligand competition binding on CHO-K1 membranes. For orientation: Displacement assays read how much labelled ligand stays bound in the presence of the test substance.

Experiment [4] has as its target T1, somatostatin receptor 5. Nature of the experiment: radioligand competition binding, membranes of CHO-K1 cells expressing SSTR5.
In experiment [5] the target is T2, somatostatin receptor 2 (UniProt P30874 1-369, limits assumed).
T2 construct: whole, on cells; Assayed as membrane preparation of CHO-K1 cells stably expressing the cloned receptor; also called SSTR2; somatostatin receptor subtype 2
Nature of the experiment: radioligand competition binding, membranes of CHO-K1 cells expressing SSTR2.

For experiment [6], the target named is T2, somatostatin receptor 2. The description is as above. The source holds these as a separate data set.
In experiment [7] the target is T1, somatostatin receptor 5. The experiment is described as follows: radioligand competition binding, membranes of CHO-K1 cells expressing SSTR5. The source holds these as a separate data set.
Experiment [8] deals with T1, somatostatin receptor 5. The experiment is described as follows: ratio of IC50 on SSTR2 to IC50 on SSTR5 (reference SSTR2), radioligand competition binding on CHO-K1 membranes. This is another data set of the same source.

Where two headings read alike, the source gives them in different places. Where a SMILES comes first, the peptide text is derived from it. Bridges are numbered along the chain shown (N, C = ends). Roman numbers before positions name the chains, in order. Where no end group is shown, it is not given here. [ ]: non-standard residue; d: D form. βDpr = 2,3-diaminopropanoic acid whose beta-amino group bears the -CH2CO- link to the S of (NMe)hCys; GlyMeDOTA = DOTA chelator on the lysine side chain; Tpi = O=C(O)[C@@H]1Cc2c([nH]c3ccccc23)CN1; βAla(cyclopropyl) = beta-Ala(cyclopropyl); Dip = N[C@H](C(=O)O)C(c1ccccc1)c1ccccc1; Phe(4-NH2) = Nc1ccc(C[C@H](N)C(=O)O)cc1; 1Nal = N[C@@H](Cc1cccc2ccccc12)C(=O)O; NMeF = CN[C@@H](Cc1ccccc1)C(=O)O; NMehCys = CN[C@@H](CCS)C(=O)O; Thz = O=C(O)[C@@H]1CSCN1; Dap = NC[C@H](N)C(=O)O

Chain of SSTR5 (P35346 whole entry): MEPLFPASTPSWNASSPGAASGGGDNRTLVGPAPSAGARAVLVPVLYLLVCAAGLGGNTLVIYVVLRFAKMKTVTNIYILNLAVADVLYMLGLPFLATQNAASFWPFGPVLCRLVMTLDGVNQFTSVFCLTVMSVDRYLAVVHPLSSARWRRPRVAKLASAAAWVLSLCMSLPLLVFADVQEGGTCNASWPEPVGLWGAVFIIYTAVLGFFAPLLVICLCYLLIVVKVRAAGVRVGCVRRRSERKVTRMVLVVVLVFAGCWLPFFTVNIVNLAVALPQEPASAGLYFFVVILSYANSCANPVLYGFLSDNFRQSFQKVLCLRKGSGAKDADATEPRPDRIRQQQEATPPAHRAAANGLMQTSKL
T1 sequence (P35346 whole entry): as above
Chain of SSTR2 (P30874 whole entry): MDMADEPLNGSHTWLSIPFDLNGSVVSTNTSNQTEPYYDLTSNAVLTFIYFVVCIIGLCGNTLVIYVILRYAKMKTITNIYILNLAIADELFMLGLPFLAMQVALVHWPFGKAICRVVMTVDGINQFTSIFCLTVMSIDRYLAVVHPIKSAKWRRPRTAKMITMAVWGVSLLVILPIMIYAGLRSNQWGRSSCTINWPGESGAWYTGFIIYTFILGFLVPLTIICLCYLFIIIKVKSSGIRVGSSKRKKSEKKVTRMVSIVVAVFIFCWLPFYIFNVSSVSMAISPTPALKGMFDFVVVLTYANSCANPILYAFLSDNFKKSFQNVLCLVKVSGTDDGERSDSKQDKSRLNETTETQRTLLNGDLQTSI
T2 sequence (P30874 whole entry): as above

For `CSCC[C@@H]1NC(=O)[C@H]([C@@H](C)O)NC(=O)[C@H](CCCCN)NC(=O)[C@@H](Cc2c[nH]c3ccccc23)NC(=O)[C@@H]2CSCN2C(=O)[C@H](Cc2ccccc2)NC1=O` [P2297, cyclo[ThioPro-DTrp-Lys-Thr-Met-Phe]] (cyclo([Thz][dW]KTMF)), in experiment [1], the IC50 (in general, the midpoint of a concentration-inhibition curve) stood at 12.8 nM. In addition, in experiment [2], the IC50 was found to be 34.5 nM and the “Ratio 2/5 in %” value is 37.1%.

On to `CSCC[C@@H]1NC(=O)[C@H]([C@@H](C)O)NC(=O)[C@H](CCCCN)NC(=O)[C@@H](Cc2c[nH]c3ccccc23)NC(=O)[C@H](C(c2ccccc2)c2ccccc2)NC(=O)[C@H](Cc2ccccc2)N(C)C1=O` [P2326, cyclo[DiphenylAla-DTrp-Lys-Thr-Met-(N-Me)Phe]] (cyclo([Dip][dW]KTM[NMeF])), for which the IC50 in experiment [1] stood at 0.177 nM; in experiment [2] it was 42.2 nM. For the same molecule, the “Ratio 2/5 in %” value in experiment [2] was determined as 0.42%.

In experiment [1], `CSCC[C@@H]1NC(=O)[C@H](C(C)C)NC(=O)[C@H](CCCCN)NC(=O)[C@@H](Cc2c[nH]c3ccccc23)NC(=O)[C@H](Cc2cccc3ccccc23)NC(=O)[C@H](Cc2ccccc2)N(C)C1=O` [P2329, cyclo[1Nal-DTrp-Lys-Val-Met-(N-Me)Phe]] (cyclo([1Nal][dW]KVM[NMeF])) yielded an IC50 of 0.437 nM. In experiment [2], the IC50 turned out to be 4.17 nM and the “Ratio 2/5 in %” value is reported as 10.5%.

B1: P2300 (peptide)
peptide: cyclo(Y[dW]K[βAla(cyclopropyl)]M[NMeF])
notes: Cyclic hexapeptide; also called cyclo[Tyr-DTrp-Lys-BAla(cyclopropyl)-Met-(N-Me)Phe]
Turning to B1, the “Ratio 2/5 in %” value in experiment [3] turned out to be 0.96%. Further, the IC50 in experiment [4] was found to be 20.7 nM; in experiment [5], 0.198 nM.

B2: P2045 (peptide)
peptide 1: Y[dW]KTF[NMehCys]
peptide 2: [βDpr][Phe(4-NH2)]CTS-OH
modifications: thioether I:6-II:1 via CH2CO; also: head-to-tail to a chain's N/C-terminus
notes: also called cyclo[Tyr-DTrp-Lys-Thr-Phe-(NMe)hCys]-CH2CO-βDpr-Phe(4-NH2)-Cys-Thr-Ser-OH
With B2, the values for the IC50 in experiment [6] and in experiment [7] were 0.21 nM and 249 nM, respectively. In addition, the “Ratio 2/5 in %” value in experiment [8] worked out at 0.084%.

B3: ReP2045 (peptide)
peptide 1: Y[dW]KTF[NMehCys]
peptide 2: [βDpr][Phe(4-NH2)]CTS-OH
modifications: thioether I:6-II:1 via CH2CO; not fully specified; also: head-to-tail to a chain's N/C-terminus
notes: also called cyclo[Tyr-DTrp-Lys-Thr-Phe-(NMe)hCys]-CH2CO-βDpr-Phe(4-NH2)-Cys-Thr-Ser-OH-[R = 0]
As to B3, the IC50 in experiment [6] worked out at 0.089 nM; in experiment [7] it was 627 nM. Moreover, the “Ratio 2/5 in %” value in experiment [8] is 0.014%.

B4: P2269 (peptide)
peptide: cyclo(W[dW]KTM[NMeF])
SMILES: CSCC[C@@H]1NC(=O)[C@H]([C@@H](C)O)NC(=O)[C@H](CCCCN)NC(=O)[C@@H](Cc2c[nH]c3ccccc23)NC(=O)[C@H](Cc2c[nH]c3ccccc23)NC(=O)[C@H](Cc2ccccc2)N(C)C1=O
notes: also called cyclo[Trp-DTrp-Lys-Thr-Met-(NMe)Phe]
Take B4: in experiment [3], the “Ratio 2/5 in %” value came to 15.3%. Also, the IC50 in experiment [4] was determined as 3.27 nM; in experiment [5] it was 0.501 nM.

B5: P1839 (peptide)
peptide: cyclo(Y[dW]KTF[NMehCys])
SMILES: C[C@@H](O)[C@@H]1NC(=O)[C@H](CCCCN)NC(=O)[C@@H](Cc2c[nH]c3ccccc23)NC(=O)[C@H](Cc2ccc(O)cc2)NC(=O)[C@H](CCS)N(C)C(=O)[C@H](Cc2ccccc2)NC1=O
notes: Known somatostatin analogue tested as comparison; also called cyclo[Tyr-DTrp-Lys-Thr-Phe-(NMe)hCys]
Turning to B5, the “Ratio 2/5 in %” value in experiment [8] was found to be 0.15%.

B6: P2323 (peptide)
peptide: cyclo([1Nal][dW]KTK(GlyMeDOTA)[NMeF])
notes: Cyclic hexapeptide carrying a DOTA chelator on Lys 5; also called cyclo[1Nal-DTrp-Lys-Thr-Lys(GlyMeDOTA)-(N-Me)Phe]
In the case of B6, the “Ratio 2/5 in %” value in experiment [3] stood at 399%. The IC50 turned out to be 9.37 nM in experiment [4] and 37.4 nM in experiment [5].

B7: P2274 (peptide)
peptide: cyclo(Y[dW]KTM[Tpi])
SMILES: CSCC[C@@H]1NC(=O)[C@H]([C@@H](C)O)NC(=O)[C@H](CCCCN)NC(=O)[C@@H](Cc2c[nH]c3ccccc23)NC(=O)[C@H](Cc2ccc(O)cc2)NC(=O)[C@@H]2Cc3c([nH]c4ccccc34)CN2C1=O
notes: Cyclic hexapeptide; also called cyclo[Tyr-DTrp-Lys-Thr-Met-Tpi]
In the case of B7, the “Ratio 2/5 in %” value in experiment [3] is 6.1%. The IC50 in experiment [4] was 19.9 nM; in experiment [5], 1.22 nM.

B8: P2267 (peptide)
peptide: cyclo(Y[dW]K[Dap]M[NMeF])
SMILES: CSCC[C@@H]1NC(=O)[C@H](CN)NC(=O)[C@H](CCCCN)NC(=O)[C@@H](Cc2c[nH]c3ccccc23)NC(=O)[C@H](Cc2ccc(O)cc2)NC(=O)[C@H](Cc2ccccc2)N(C)C1=O
notes: Cyclic hexapeptide; also called cyclo[Tyr-DTrp-Lys-Dpr-Met-(NMe)Phe]
Consider B8, for which the “Ratio 2/5 in %” value in experiment [3] is 1.9%. Also, the IC50 in experiment [4] stood at 25.9 nM; in experiment [5], 0.501 nM.
